According to the DeepSol protein solubility set:

assay: soluble on expression in E. coli; label from the status in PepcDB or PDB records

Sequence | soluble on expression in E. coli
MAHHHHHHMEDITWVRSEVHSWIYDNLRAKWTSLVRQPTKLRTMFSGYRSTPTFVDRVLRRVGIANEIALTAMLRTWGPPELHAFVALYVRLRFPMIVALNKADLSTAADVAAALRQAYPHEVFVLMTARIEWLALQLSRKGYVDYTPGAASLSLKADCGEGADLEKRVRQELHDVTSFFRTTTSSPERLSSSVLRLTTTGVQDVLAAAMEACGVMLVYPVRAFHPVTSLAHCLTFKLGSSAERVFNALVHLQLLEGKLARFEMIDLAPVKRQLHQQLLASLATAPSNEASTPVPAQQQQCAVALPTSVQTLRKTEVIRSSAVLARILSNKRQLA | not soluble
EKMTRDEIEYMLTNSEETLDADEIEMLQGVFSLDELMAREVMVPRTDAFMVDINDDSSDIIQTILNERFSRIPVYDDDKDKIIGIIHTKNLLNAGFKEGFDHINLRRILQEPLFVPETIVVNDLLTALKNTQNQMAILLDEYGGVAGLVTLEDLLEEIVGEIDDETDKTAISVREIADNTYIVLGTM | not soluble
DTLANAVYLRLMTPLGGWWADPTLGSRLHELSRSKDSNRIDLLACQYAEQALQPLLQDGRASRVQVSSQRQGPGRLLLNIEVAETGGHIRHFQHQVRI | not soluble
MSLAESPLEIHVIADSTGETAVRLARAARSQFEGVHWHIVRHPMIGTVPEMVSALEAVSEAHEAGQWVCVVHTLVLPDMRRMVSDACEEMGIRELDLMGPMLEAMEEASGLDADAVPRRPVGVEADYFTRISAMEFAVRNDDGAIPDRLTEADICLVGVSRSGKTPLSIYLGYLGYKTVNVPLVPGIAPPTELAAVDRWRIVGLTIDAQRLLEIRGRRVRGLGGFGNEDGYADLAAIYEELDEVGKIQRRLGCPIIDTTGLALEESATKVIDVVDQRAKTAGTRLRKPAGSYRMRPEGHHHHHH | soluble
MDDSTLRDRLEQLGLSEKEVDTYLSILSSGEATASEIADDTGVSKRYVYSISESLEDRGFVEVNDHVVPTTIRARPPEEVIDALTDRLEEMSGALDSRYSASAREPQQFDVIKSRVTVIKRLTEYIRNAEREIMLSVPQQYLPEISEELGAAVDRGVLVMLVVSSADNLRSDDASGLASVVRSWDQPMPIMLTVDAQFGLVSPAEMVTRTNSDQRAIAFVQQQLVPVLSGSFLGNYWLMATEVAVTDPAPLPATYHDFRHAVLQATLHLRADHDIHVSADVRAVQADDDTTTIEGTVVETKQGLVEPETNSYPIEHTLVVDIGDRTVSLGGSGSFLEDYETDAVTLSLAE | not soluble
GSHMLGERLGIPAPRRIEAFDNSNIYGADPVSALVVFLDGKPAKKEYRKYKVKTVAGPNDYETMREVVRRRYTRVLKEGLPLPDLIIIDGGKGHLSAVRDVLENELGLDVPLAGLAKDEKHRTSELLAGDPPDVVPLDRQSQEFYLLQRIQDEVHRFAVMFHRKTRQKTMFHSVLDDIPGVGEKRKKALLNYFGSVKKMKEATVEELQRANIPRAVAEKIYEKLHE | soluble
MPNLPQKAQQRQPQEHKSRHKATDDTEAPKQQQQQQQQQQSFDVATNANGSSLPASRVKNPEEPGGKSPLVPMRQHHSKVTRPPPPPTLFLENSLLQRQFANPISYLGGPRLQPRSNRTSIDSILSLDLEHHHHHH | not soluble
MGHHHHHHSHASELQQHVYDRAHLLSKAEIGKLESLSAKLGAKRDTDFIIITTKSTNGEDIADYTGDFYDRYGKGSTAILTIDMTNREVFIAGFKKAEQYLDNSRLNSIRNTISSDLSNENYFEAFETYIQLSYKDMGIKPGVNPDNI | not soluble
MGSDKIHHHHHHMTVDTRPAVGNPGYATSSPELERWLARHISEGFGAESLVLSMLRSGYDAAFARSAVATAMGHRRPDASATQPAPRLARREVPVLFSLQSPSIRLYQHLLSDAECDALVELARGRLARSPVINPDTGDENLIDARTSMGAMFQVGEHTLIQRIEDRIAAVLGVPVDHGEGLQILNYKPGGEYQPHFDFFNPKRPGEARQLRVGGQRTATLVIYLNTPQAGGATAFPRIGLEVAPVKGNAVYFSYLQPDGKLDERTLHAGLPVQSGEKWIATKWLREHPYRAGA | not soluble
MSLKDLQKYQGIIPAFYACYDDKGDICPERVKALTNYFIDKGVQGLYVNGSSGECIYQSVADRKLVLENVMSVAKGKLTVIAHVACNNTKDSVELAMHAEAIGVDAIAAIPPIYFRLPEYAIADYWNTISQAAPQTDFIIYNIPQLAGVALTSDLYRKMLQNPQVIGVKNSSMPVQDIQNFVAIGGENHIVFNGPDEQFLGGRLMGAAAGIGGTYGVMPELYLTLNQLIVDKDLEKARELQFTINDIITKLCSGHGNMYAVIKAVLEINEQLTIGSVRLPLASVTEEDKPIIKEAAEEGHHHHHH | soluble
KISKISTGIPRVDELLYGGFDGRDNIVVSGNNFSQKRSFIYNFIKSSANSGMKVIIINVDGSSESLLADLARRGTDLENIILLDGFSKNFQEKVPPNAEVIDDPSNVSSVLKQYMLRAQKEKDFIFVFLSATPYLMDFNDQNRKFFVQLVHWNRKNSLLSTYVLDDFVGQTTAEWFAYMMDFSLYFKNDGDYDYMRVLSLKPVRTKDW | soluble
MYSDDLLLEEDSADESSLANAFSRGMQLGSTDASSYSRRFNSNASTSSSNPTTQRRYAPNQAFSQVETGSPPSNDPHARFGQHIPGSQYIPHVSQNSPSRLGQQPPQRYNHGRPNAGRTMDRNHMNAQLPPSNTNSGGQQRSPRSSSYTNGVPWGRRTNNHVPNVPSTSHGRVDYGSIA | soluble
MSAYIAPSQIAQRQLEYFNGKHVLVAGEVEDMFPLELTAHCESVEVFTSNYSYFRQIRHSDKIKSHFGSEFDVETQADMLLLYWPKAKAEAEYLLAMLMAKLGVNTEIVVVGENRSGVKSIEKMFKEYGPVNKYDSARRCSFYWGNCLNEPKPFNQEEWFKSYTVTLGEQSLTVKSLPGVFSHGEFDLGSRLLLETLPNLSGKVLDFGCGAGVLGAFMAKANPEIAIEMCDINAYAITSSQATLEANGLSGRVFASDIYSDTANDYRFIISNPPFHSGLDTNYNAAETLLGHAPQHLSNHGEMIIVANSFLKYPPIIENAFNNCETLNKTNKFSIYYAKKS | not soluble
MGSDKIHHHHHHMRLDTLSKTGGGVQEALSGSVRLYSEVLNREVEVPETPRRIVSLSPAITETLYMLGLEDRIAGVSVYDHKPPKAREKPKVGSYYKVNMKLLEQLNPDLILVTTGAQRRILEDLSRRYPVYPIPLPVSVSGIIDQAVQVGIVTGALEEASRLETELLDKASKLRGAGRGLRIYYEVYLGGPVTAGAHTYISDAFRIAGVETPFMSERTTWIYQPPPERINRFKPQFILYEYSAYAPTTAEKVRGELEARGVDVGSAELVLLEPDTLAHYGPSFIDTMLDLLKTLRDKAGLG | not soluble
MGSDKIHHHHHHMELQLMQWQVGDLPFFYRCQPQPSNAPYGLPDSLPFCLEFDSALGLIRQSPNTQVEAALERCYQHGSTISGMMDSGGIGQQYARDFLDFIAHHETDLTGKRVLEIGCGTGYLLSLLKQKGADVLGIEPGAQGQGGQQRHGVPIIDGFFPHPKAEGKFDLIVAYAVLEHIGEPQGFLEKIADSLAPDGVAYIAVPDCAPYIENGDISCLLHEHWSYFDASSLQRLLEVSGFAAAVQPAGFGGSIYARAVRVSHKTKPVNDEIDLAGNGFERFRSLALGAGQRLERFLAGPGQAGIYVPGRMINLLASLDSVDLAQVRLFDDNEALTGLYFPGMPNPIEDFSGLVERPPARLLIATKSFHFQIADRIEHASVEVPLLAWSDLFLVAAPK | not soluble
MFARLANPAHFKPLTGSHITRAAKRLYHPKVIDHYTNPRNVGSMDKSLANVGTGIVGAPACGDVIKLQIQVNDKSGIIENVKFKTFGCGSAIASSSYMTELVRGMSLDEAVKIKNTEIAKELSLPPVKLHCSMLAEDAIKAAIKDYKTKRNPSVLH | not soluble
MSLKSVVNDTDGIVRVAKSVIPEIKHQDEVRVKIASSGLCGSDLPRIFKNGAHYYPITLGHEFSGYIDAVGSGVDDLHPGDAVACVPLLPCFTCPECLKGFYSQCAKYDFIGSRRDGGFAEYIVVKRKNVFALPTDMPIEDGAFIEPITVGLHAFHLAQGCENKNVIIIGAGTIGLLAIQCAVALGAKSVTAIDISSEKLALAKSFGAMQTFNSSEMSAPQMQSVLRELRFNQLILETAGVPQTVELAVEIAGPHAQLALVGTLHQDLHLTSATFGKILRKELTVIGSWMNYSSPWPGQEWETASRLLTERKLSLEPLIAHRGSFESFTQAVRDIARNAMQGKVLLIPEGHHHHHH | soluble
MGSDKIHHHHHHMAQQTPLYEQHTLCGARMVDFHGWMMPLHYGSQIDEHHAVRTDAGMFDVSHMTIVDLRGSRTREFLRYLLANDVAKLTKSGKALYSGMLNASGGVIDDLIVYYFTEDFFRLVVNSATREKDLSWITQHAEPFGIEITVRDDLSMIAVQGPNAQAKAATLFNDAQRQAVEGMKPFFGVQAGDLFIATTGYTGEAGYEIALPNEKAADFWRALVEAGVKPCGLGARDTLRLEAGMNLYGQEMDETISPLAANMGWTIAWEPADRDFIGREALEVQREHGTEKLVGLVMTEKGVLRNELPVRFTDAQGNQHEGIITSGTFSPTLGYSIALARVPEGIGETAIVQIRNREMPVKVTKPVFVRNGKAVA | not soluble
MARDVKKRGKPAYTNRRNRQKYLKKKDNKKKLSKSAVPIIKYTWDETKTPRENVRDMGIAFNPNDAVPIAEHRKEIIDAEPIDGVSIVVPKPEKKVTGRKKNEKQAAHIISNLEQQVKEEEEARAGQDRKFRLFHRETELCVYMLARHGEDFQAMTRDPKNLWQYTPKQWAKKIRTHKESEMCKFLETA | not soluble
MRKQKNRQRNRGRSQEIALFLDPLATSLKWLQAGRQITTEAFHNPEAGENQYRLISSGFRLSIFGRGAVRQGMNKERFTILLGGDVAVSDRLKRAVVNSRVIAADGGMRHATPLGLTPELWVGDFDSANQELLDAWPDVTRQPYPAAKAVTDGEIAVSEALLRGAHSLLLVGALGGARSDHALQHLLYAVALAERGFEVTLTSGEEEARPLLAGSLAIDLPAGSLFSVAGFTALEGLDIGNVRYPLNDFALAFGSSRTISNVANGGPVHFSLKSGKAIVLARPYDLTGALEHHHHHH | soluble
MSLNASVSPKGSLETLSQREVQQLSEVGTGSLYTLFRQCALAILNTGAHVDNAKTILEAYKDFEVRIHQQDRGVRLELLNAPADAFVDGEMIASTREMLFSALRDIVYTESELASQRIDLESSQGITDYVFHLLRNARTLRPGEGHHHHHH | not soluble
QKVPAPVDGERIIMELSEADVECTIKIEAEDGYANDIWADLNGNGKYDSGERLDSGEFRDVEFRQTKAIVYGKMAKFLFRGSSAGD | not soluble
MCMHNSGFNLNLPPWVIASRHFNDNPHPLEVQGVRLANRFLFERLDAIASPDERGTVFNDYMSVKFQLHLWQEQATPSARKSLKNSYLRYLRGWMMDSNSVEGAVLKGWVESRMGIVPSFHKARITGIHTESYYGYVVDRTAGSKRTSAINSQLDILYEFCQYELARRFPGELWVTLYRGTFAADDYDVVEELGRREKIIRFNNLVSFTSHEERAWEFGSTVWEIRAPLSKVFFFDDLLPGSILKGEGEYLVIGGEYRVRRVMCTVLEHHHHHH | not soluble
MSLAYQALYRVFRPQSFQDVVGQEHVTKTLKNAIVQNKTSHAYLFSGPRGTGKTSAAKIFAKAINCEHGHDGEPCNECEICKGTTDGSIPDVLEIDAASNNGVEEIRDIREKVKYAPTVAKYKVYIIDEVHMLSTGAFNALLKTLEEPPKHVIFILATTEPHKLPLTIISRVQRFDFKRITTQDIIGRLKFILEEEKIPYDEKALMIVARAAEGGMRDALSLLDQVISYGSEEVTVEDALEITGSVAQNLLTKLVSAAFDGDAAEAISTLTALLAEGKDPVRLVEDLLVFFRDVLLYQKAPNLEETLERALIDDDFVALAKRADSLKVYEFVKILNTAQQQMRFSNHPGIYVEVALIQLTQAGEGHHHHHH | soluble
